The values that follow come from patent publication US20240239875A1 (published 2024).

Experiment in all cases: ELISA
On the technique in general: ELISA stands for enzyme-linked immunosorbent assay.

One assay addresses SARS-CoV-1 spike protein (SARS-CoV-1, UniProt P59594 14-1195).
A further assay addresses T1, HCoV229E spike protein (HCoV-229E, UniProt P15423 17-1103).
T1 chain: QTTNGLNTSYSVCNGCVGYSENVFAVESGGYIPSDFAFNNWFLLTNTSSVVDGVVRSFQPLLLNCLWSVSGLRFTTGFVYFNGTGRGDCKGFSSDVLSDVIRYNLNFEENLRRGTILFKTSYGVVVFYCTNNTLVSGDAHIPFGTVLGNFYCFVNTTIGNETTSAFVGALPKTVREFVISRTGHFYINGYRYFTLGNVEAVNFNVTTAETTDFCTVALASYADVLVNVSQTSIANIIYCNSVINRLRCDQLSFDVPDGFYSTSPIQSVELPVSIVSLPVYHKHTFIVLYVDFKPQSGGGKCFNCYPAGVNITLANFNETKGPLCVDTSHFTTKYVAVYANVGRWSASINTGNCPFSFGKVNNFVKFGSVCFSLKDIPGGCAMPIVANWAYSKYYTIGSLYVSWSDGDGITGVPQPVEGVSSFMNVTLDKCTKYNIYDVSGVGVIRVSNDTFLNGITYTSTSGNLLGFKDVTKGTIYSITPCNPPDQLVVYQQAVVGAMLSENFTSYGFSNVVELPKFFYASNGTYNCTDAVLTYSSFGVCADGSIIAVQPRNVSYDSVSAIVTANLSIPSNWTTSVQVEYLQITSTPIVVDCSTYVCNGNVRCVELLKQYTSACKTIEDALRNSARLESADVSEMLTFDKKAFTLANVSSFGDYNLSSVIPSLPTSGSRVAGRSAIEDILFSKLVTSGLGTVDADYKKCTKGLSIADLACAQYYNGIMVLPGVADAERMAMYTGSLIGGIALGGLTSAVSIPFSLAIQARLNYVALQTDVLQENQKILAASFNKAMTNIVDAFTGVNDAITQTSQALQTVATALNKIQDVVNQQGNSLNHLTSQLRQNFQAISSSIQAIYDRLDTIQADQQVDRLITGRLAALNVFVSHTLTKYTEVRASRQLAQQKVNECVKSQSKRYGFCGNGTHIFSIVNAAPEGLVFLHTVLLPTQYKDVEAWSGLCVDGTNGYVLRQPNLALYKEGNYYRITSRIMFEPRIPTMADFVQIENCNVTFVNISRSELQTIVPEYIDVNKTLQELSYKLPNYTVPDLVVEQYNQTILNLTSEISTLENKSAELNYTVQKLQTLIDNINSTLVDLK

The target in the next assay is T2, MERS spike protein (MERS-CoV, UniProt K9N5Q8 18-1296).
T2 chain: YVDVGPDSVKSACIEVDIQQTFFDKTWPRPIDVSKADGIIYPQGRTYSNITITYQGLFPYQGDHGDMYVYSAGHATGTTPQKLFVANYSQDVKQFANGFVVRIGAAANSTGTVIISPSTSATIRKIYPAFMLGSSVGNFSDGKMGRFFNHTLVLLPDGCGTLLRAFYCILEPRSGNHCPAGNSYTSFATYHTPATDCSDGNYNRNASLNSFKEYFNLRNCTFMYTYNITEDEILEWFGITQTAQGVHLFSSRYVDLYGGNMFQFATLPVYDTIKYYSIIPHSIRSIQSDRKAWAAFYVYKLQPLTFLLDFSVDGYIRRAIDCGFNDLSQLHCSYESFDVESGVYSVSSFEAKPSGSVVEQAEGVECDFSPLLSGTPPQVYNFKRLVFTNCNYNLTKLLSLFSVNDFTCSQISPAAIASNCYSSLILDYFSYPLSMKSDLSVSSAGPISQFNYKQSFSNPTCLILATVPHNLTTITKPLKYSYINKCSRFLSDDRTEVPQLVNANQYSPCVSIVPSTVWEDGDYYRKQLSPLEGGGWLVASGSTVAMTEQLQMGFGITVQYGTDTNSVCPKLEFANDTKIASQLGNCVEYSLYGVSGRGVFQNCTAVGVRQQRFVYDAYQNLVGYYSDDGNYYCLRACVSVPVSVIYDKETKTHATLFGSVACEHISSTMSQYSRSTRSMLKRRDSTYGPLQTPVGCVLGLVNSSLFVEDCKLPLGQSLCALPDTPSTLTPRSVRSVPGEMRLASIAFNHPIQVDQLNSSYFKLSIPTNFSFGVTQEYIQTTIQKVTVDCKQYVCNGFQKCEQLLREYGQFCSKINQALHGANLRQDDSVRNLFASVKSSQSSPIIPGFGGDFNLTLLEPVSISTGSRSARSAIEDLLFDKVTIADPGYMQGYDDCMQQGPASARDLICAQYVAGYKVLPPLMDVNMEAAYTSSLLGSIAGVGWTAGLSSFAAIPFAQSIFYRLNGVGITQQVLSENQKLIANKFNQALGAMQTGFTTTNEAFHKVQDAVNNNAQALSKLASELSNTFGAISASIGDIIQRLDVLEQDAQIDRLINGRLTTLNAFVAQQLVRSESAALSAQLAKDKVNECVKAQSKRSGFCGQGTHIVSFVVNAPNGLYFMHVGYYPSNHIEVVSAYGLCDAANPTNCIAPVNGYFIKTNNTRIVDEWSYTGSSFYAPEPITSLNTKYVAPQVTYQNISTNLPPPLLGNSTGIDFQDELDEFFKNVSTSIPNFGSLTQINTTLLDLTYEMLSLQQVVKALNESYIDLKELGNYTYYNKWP

The target in assay [1] is SARS-CoV-2 prefusion stabilized trimer protein (WIV02 isolate spike protein) (UniProt P0DTC2 14-1213).

B1: 1-L10-A (antibody, V domains shown)
VH: EVKLEESGGGLVQPGGSMKLSCVASGFTFNNYWMNWVRQSPEKGLEWVAQMRLKSDNYATHYAESVKGRFTISRDDSKSSVYLQMNNLRAEDTGIYYCIEGYWTYWGQGTLVTVSA
VL: QIVLTQSPAIMSASLGERVTMTCTASSSVSSSYLHWYQQKPGSSPKLWIYSTSNLASGVPARFSGNGSGTSYSLTISSMEAEDAATYYCLQYHRSPPYTFGGGTKLEIK
For orientation: EC50 means the concentration needed to bring the measured effect to its halfway point. On to B1, for which the EC50 with SARS-CoV-1 spike protein came to 5.27 nM; with HCoV229E spike protein it was 0.12 nM; with MERS spike protein it was 3.47 nM; in assay [1], 111 nM.

B2: 9-F6-A (antibody, V domains shown)
VH: EVQLQQSGPELVKPGASVKMSCKASGYTFTSYIMHWVKQKPGQGLEWIGYILPYNDGTKYNEKFKGKATLTSDKSSSTAYMELRSLTSEDSAVYYCARWGYSNFLDSWGQGTTLTVSS
VL: DIQMTQTTSSLSASLGDRVTISCRASQDINNYLNWYQQKPDGTVKLLIYYTSRLHSGVPSRFSGSGSGTDYSLTIRNLEQEDIATYFCQQGNTLPPTFGGGTKLEIK
With B2, the EC50 with SARS-CoV-1 spike protein came to 0.46 nM; in the assay with HCoV229E spike protein it was 0.03 nM; in the assay with MERS spike protein, 1.67 nM; in assay [1], 0.59 nM.

B3: 1-B11-A (antibody, V domains shown)
VH: QVQLQQSGPELVKPGASVKISCKASGYTFTDHYINWVKQRPGQGLEWIGWIFPGSGSTYYNEQFKGKATLTVDKSSNTAYMLLSSLTSEDSAVYFCARSGGLRLGFAYWGQGTLVTVSA
VL: DIQMTQTTSSLSASLGDRVTISCRASQDISNYLNWYQQKPDGTVKLLIYYTSRLHSGVPSRFSGSGSGTDYSLTISNLEQEDISTYFCQQVNTLPYTFGGGTKLEIK
For the molecule B3, the results for the half-maximal effective concentration (EC50) (with SARS-CoV-1 spike protein; with MERS spike protein; in assay [1]) were 0.55 nM, 0.63 nM and 10.7 nM, respectively.

B4: 7-D7-A (antibody, V domains shown)
VH: QVQLKESGPGLVAPSQSLSITCTVSGFSLTSYAISWVRQPPGKGLEWLGVIWPGGGTNYNSALKSRLSISKDNSKSQVFLKMNSLQTDDTAKYYCARTGYYFDYWGQGTTLTVSS
VL: QLILTQSPAIMSASPGEKVTMTCSASLSVNYMYWFQQKPGTSPKRWIHDTSKLASGVPARFSGSGSGTSYSLTISSMEAEDAATYYCQQWSSNPPMYTFGGGTKLEIK
Consider B4, for which the EC50 in the assay with SARS-CoV-1 spike protein is 3.05 nM; with HCoV229E spike protein, 0.13 nM; in the assay with MERS spike protein it was 0.9 nM; in assay [1] it was 0.72 nM.

B5: 8-A17-A (antibody, V domains shown)
VH: QVQLKESGPGLVAPSQSLSITCTVSGFSLTSYAISWVRQPPGKGLEWLGVVWPGGGTNYNSALKSRLSINKDNSKSQVFLKMNSLQTDDTGRYYCARTGYHFDYWGQGTTLTVSS
VL: QIVLTQSPAIMSASPGEKVTMTCSVSSSVSYMHWYQQKSGTSPKRWIYDTSKLASGVPARFSGSGSGTSYSLTISSMEAEDAATYYCQQWSSNPPMYTFGGGTKLEIK
For the molecule B5, the EC50 with SARS-CoV-1 spike protein was determined as 0.36 nM; with HCoV229E spike protein it was 0.01 nM; with MERS spike protein, 0.49 nM; in assay [1] it was 0.27 nM.

B6: 6-O12-A (antibody, V domains shown)
VH: QVQLQQPGTELVKPGASVKLSCKASGYTFTSYWMHWVKQRPGQGLEWIGNINPSNGGTNYNEKFRSKATLTVDKSSSTAYMQLSSLTSEDSAVYYCARLGWFLPLGSWGQGTTLTVSS
VL: QIVLTQSPAIMSASLGEVITLTCSASSSVSYMHWYQQKSGTSPKLLIYSTSNLASGVPSRFSGSGSGTFYSLTISSVEAEDAADYYCHQWSGYMYTFGGGTKLEIK
For the molecule B6, the EC50 with SARS-CoV-1 spike protein turned out to be 0.24 nM; with HCoV229E spike protein, 0.15 nM; with MERS spike protein it was 0.25 nM; in assay [1] it was 0.39 nM.

B7: 2-G20-A (antibody, V domains shown)
VH: EVQLQQSGPELVKPGASVKMSCKASGYTFPSYVLHWVKQKPGQGLEWIGYIYPYNDGTNYNEKFKGKATLTSDKSSSTAYMELSSLTSEDSAVYYCARGDYGDSAWFPYWGQGTLVTVSA
VL: DIVLTQSPASLAVSLGQRATISCRASKSVSTSGYSYMHWYQQKPGQPPKLLIYLASNLKSGVPARFSGGGSGTDFTLNIHPVEEEDAATYYCQLSRELPWTFGGGTKLEIK
B7: the EC50 with SARS-CoV-1 spike protein was found to be 1.44 nM; in the assay with HCoV229E spike protein it was 0.1 nM; with MERS spike protein it was 8.71 nM; in assay [1] it was 1.83 nM.
